# In patent publication US20240150473A1, “MODULATION OF WNT SIGNALING IN GASTROINTESTINAL DISORDERS” (Surrozen Operating, Inc., priority 2021, published 2024):
# Experiments:
# [1] = test system: DSS induced acute colitis in C57BL6/J mice; test: DSS induced acute colitis model; format: in vivo, mouse; conditions: two doses day 4 and day 7, evaluated day 10
# Method: 7- to 8-week-old female C57BL6/J mice were fed with 4% (wt/vol) Dextran Sulfate Sodium (DSS, MP Biomedicals, molecular weight 36-50 kDa, Ref #160110) in drinking water from day 1 to day 7 to induce colitis and were switched to 1% DSS from day 8. […] Animals were terminated on day 10, allowing a 6-day course of protein treatment, and the colon was harvested for histology and RT-qPCR. […] The disease activity index (DAI) was calculated based on the average score of weight loss, stool consistency and the degree of intestinal bleeding (Wirtz Stefan et al., 2017). Scoring system by grading was on a scale of 0 to 4 using the following parameters: loss of weight (0, 0-1%; 1, 1-6%; 2, 6-12%; 3, 12-18%; 4, >18%), stool consistency (0, normal; 1, soft but still formed; 2, soft; 3, very soft, wet; 4, watery diarrhea) and intestine bleeding (0-1, negative hemoccult; 2, positive hemoccult; 3, blood traces in stool visible; 4, gross rectal bleeding).
# Small intestine and colon were extracted and, after removing fecal content, weighted and length measured. The desired small intestine segments (duodenum, jejunum, ileum) and colon segments (ascending, transverse and descending colon) were cut out and fixed directly in 10% neutral buffered formalin (NBF) overnight. Tissues were then transferred to 70% ethanol before paraffin embedding. Paraffin tissue blocks were then sectioned to […] thickness and stained with hematoxylin and eosin (H&E) for histology analysis. Pathology reading was performed by an independent pathologist.
# […] Groups of mice were either untreated, treated with an isotype control antibody (anti-GFP), or treated with the indicated engineered Wnt agonist once on day 4 or twice on day 4 and 7. […]
# The 123 mice total were grouped: (Day3=13, day4=13, day5=26, day6=24, day7=26, day10=21), with 91 used for histology endpoints, and 21 for scRNA-seq (group eliminated because of machinery). Daily food intake, BW, fecal score, and occult blood were measured. […]
# [2] = test system: colon tissue markers (ZO-1, Ki67, Axin2, Cdkn3, S100A9, CD45); test: RNA in situ hybridization and immunohistochemistry/immunofluorescence of colon tissue, DSS model; format: in vivo, mouse; conditions: day 10 of the DSS model
# Excerpt: Expression of mRNA was detected by RNAscope in situ hybridization (ACD Bio). RNAscope probes used are listed below. For colorimetric visualization, standard RNAscope® 2.5 HD Assay-Red protocol (www.acdbio.com) was followed, and images were acquired on a Leica DMi8 microscope equipped with a DFC7000T color camera. For fluorescent RNAscope in situ hybridization, standard RNAscope Multiplex Fluorescent Reagent Kit v2 Assay protocol was followed (ACD Bio Document #323100-USM) and coupled with the TSA Plus Cyanine 3 and 5 Systems. Fluorescent images were acquired with a Leica Thunder imaging system.
# In brief, five-micron thick formalin fixed paraffin embedded tissue sections on slides were deparaffinized followed by citrate buffer (pH 6) antigen retrieval in a steamer. Slides were then washed thoroughly in tap water followed by 1× wash in PBST. Subsequently, tissue sections were blocked with serum free protein block (Agilent, X090930-2) for one hour at room temperature followed by incubation in primary antibodies. After primary antibody incubation, tissue sections were washed in 0.1% TX-100 in PBS (PBST) at least three times followed by incubation in secondary antibody. Afterwards, tissue sections were washed with PBST, and coverslips were mounted with Vectashield Vibrance antifade mounting medium with DAPI (Vector Laboratories, H-1800).
# [3] = test system: Mouse small intestinal organoids; test: Organoid culture and proliferation assay; format: cell-based; conditions: organoids treated with Porcupine inhibitor IWP2
# Method: Mouse small intestinal organoids were maintained in mouse IntestiCult™ Organoid Growth Medium ([…] technologies) and passaged once a week until the date of assay for Wnt mimetic activity (H. Chen, Lu, Lee, & Li, 2020). To assay for organoid proliferation, organoids were dissociated with Gentle Cell Dissociation Reagent ([…] technologies) for 10 min with shaking, washed 2× in cold PBS (Gibco) and resuspended 1:1 in Matrigel (Corning) on ice. 25 ul of cell resuspension in Matrigel was seeded to the center of each well on a prewarmed 48-well tissue culture plate and let solidify for 5 min at 37 degrees. 300 ul of Basal Media (Table 10), Basal Media+IWP2+anti-βGal or Basal Media+IWP2+Wnt mimetic was applied to the wells. Each condition included 5-6 repeats. Media and treatments were changed once on Day 4 after plating. Images of the 3D cultured organoids were acquired on Day 7.
# Mouse small intestinal organoids were treated with the Porcupine inhibitor IWP2 to inhibit endogenous Wnt ligand secretion in the cultured organoid. When these organoids were subject to no protein treatment or were treated with a control anti-β-gal IgG, the organoids were not maintained and quickly degenerated.
molecule,measurement,setting,value
"R2M3-26: Fzd1,2,5,7,8 pan specific Wnt mimetic targeting FZD1,2,5,7,8 and LRP6 (protein) light: DVQLVESGGGLVQAGGSLRLACAGSGRIFAIYDIAWYRHPPGNQRELVAMIRPVVTEIDYADSVKGRFTISRNNAMKTVYLQMNNLKPEDTAVYYCNAKRPWGSRDEYWGQGTQVTVSSGSGSGQAVVLQEPSLSVSPGGTVTLTCGLSSGSVSTNYYPSWYQQTPGQAPRTLIYYTNTRSSDVPERFSGSIVGNKAALTITGAQPDDESVYFCLLYLGRGIWVFGGGTKLTVLGQPKAAPSVTLFPPSSEELQANKATLVCLISDFYPGAVTVAWKADSSPVKAGVETTTPSKQSNNKYAASSYLSLTPEQWKSHRSYSCQVTHEGSTVEKTVAPTECS heavy: EVQLVQSGAEVKKPGASVKVSCKASGYTFTSYGISWVRQAPGQGLEWMGWISAYNGNTNYAQKLQGRVTMTTDTSTSTAYMELRSLRSDDTAVYYCASSKEKATYYYGMDVWGQGTTVTVSSASTKGPSVFPLAPSSKSTSGGTAALGCLVKDYFPEPVTVSWNSGALTSGVHTFPAVLQSSGLYSLSSVVTVPSSSLGTQTYICNVNHKPSNTKVDKKVEPKSCDKTHTCPPCPAPEAAGGPSVFLFPPKPKDTLMISRTPEVTCVVVDVSHEDPEVKFNWYVDGVEVHNAKTKPREEQYNSTYRVVSVLTVLHQDWLNGKEYKCKVSNKALGAPIEKTISKAKGQPREPQVYTLPPSREEMTKNQVSLTCLVKGFYPSDIAVEWESNGQPENNYKTTPPVLDSDGSFFLYSKLTVDKSRWQQGNVFSCSVMHEALHNHYTQKSLSLSPGK",histology (colitis) score,"[1]; reduced from 4.75, see WO 2020/185960A1",2.0
same,crypt architecture and tissue inflammation,[1]; versus PBS or anti-GFP,restored crypt architecture with less tissue inflammation
same,Ki67 expression in duodenum and colon,[2],did not lead to an expansion of Ki67
same,organoid proliferation and growth,[3],able to stimulate cell proliferation
